# Results taken from US8809001B2, “High throughput assays for inhibitors and activators of PAQR receptors” (University of Florida Research Foundation, Inc., priority 2007, dated 2014).
# Legend:
# AdipoR2 = assay: FET3-lacZ (pFET3-397) reporter repression in yeast expressing AdipoR2; format: cell-based, human
# Description: (§1) IZH1-4 were cloned into pRS316-GAL1 via gap repair as previously described (Lyons et al., 2004). The triple hemaglutinin epitope (3×HA) tagged construct of the IZH2 gene was generated by replacing the ZRC1 promoter and open reading frame in the YCpZRC1-HA plasmid (MacDiarmid et al., 2002) with those of IZH2. This was accomplished by gap repair of Age I-digested YCpZRC1-HA to generate pIZH2-3×HA. This construct has the IZH2 gene driven by its native promoter and retains the ZRC1 terminator sequence. The native IZH2 promoter was then exchanged with the GAL1 promoter using gap repair of pIZH2-3×HA plasmids cut with EcoN I. AdipoR1 and AdipoR2 were amplified from cDNAs obtained from OpenBiosystems (Accession #: BC010743 and BC051858, respectively). PCR products were cloned into NcoI/BamHI digested pYES260 vector (Melcher, 2000) by gap repair allowing for GAL1-driven expression. Plasmids containing GAL1-driven the TAP (Tandem Affinity Purification) tagged NRG1 and NRG2 constructs were purchased from OpenBiosystems.
# Most experiments were performed in a defined EDTA-containing medium known as low iron medium (LIM) (Eide et al., 1992). Iron-deficiency and repletion were generated by adding either 1 μM or 1 mM of FeCl3, respectively, to LIM. 2% galactose was used to fully induce GAL1-driven gene overexpression. Total sugar concentration was maintained at 2% by the addition of raffinose in those experiments in which the % galactose was modulated to decrease expression levels. Cells were allowed to grow to mid-log phase in LIM and β-galactosidase assays on permeabilized yeast were performed as previously described (Lyons et al., 2000). […]
# (§2) Assays and growth conditions. […] Cells were allowed to grow to mid-log phase at which time the activity of the FET3 gene was monitored using a FET3-lacZ promoter-reporter construct. lacZ activities are presented as a percentage of activity seen in untreated cells expressing the appropriate empty expression vector control. […]
# FET3 = assay: FET3-lacZ reporter in wild type yeast carrying empty expression plasmid; format: cell-based, Saccharomyces cerevisiae; settings: no human PAQR
# Description: Assays and growth conditions. Strains were maintained using standard protocol and grown in synthetic defined (SD) media with the appropriate amino acids to match the auxotrophies of the individual strains. Low Iron Medium (LIM) contains EDTA to limit iron-bioavailability and its composition has been previously described (Kupchak et al., 2007). […] In brief, overnights of cells grown in SD-glucose media were re-inoculated into iron-deficient LIM to induce the expression of FET3. 2% galactose was used as a carbon source to induce full expression of PAQR genes driven by the GAL1 promoter, while 0.05% galactose/1.95% raffinose was used for reduced PAQR expression. All ligands were added to the growth medium upon re-inoculation into LIM. For experiments in which steroids were added as ligands, steroids were added from ethanol stocks and “untreated” controls are actually treated with an equal volume of ethanol to control for vehicle effects. Cells were allowed to grow to mid-log phase at which time the activity of the FET3 gene was monitored using a FET3-lacZ promoter-reporter construct. lacZ activities are presented as a percentage of activity seen in untreated cells expressing the appropriate empty expression vector control. For individual experiments, each data point has been done in triplicate and the error bars represent +/−1 standard deviation. All experiments were performed at least three times and a representative experiment is shown. EC50 values were obtained using the web-based BioDataFit software using sigmoidal curve-fitting. (web site changbioscience.com/stat/ec50.html)
# AdipoR1 = target: T1, AdipoR1 (Homo sapiens, UniProt Q96A54); assay: FET3-lacZ (pFET3-397) reporter repression in yeast expressing AdipoR1; format: cell-based; settings: low levels of AdipoR1 (0.02% galactose)
# T1 construct: expressed in transfected cells; host or cells: Saccharomyces cerevisiae BY4742, GAL1-driven pYES260 plasmid
# T1 sequence (Q96A54 1-375): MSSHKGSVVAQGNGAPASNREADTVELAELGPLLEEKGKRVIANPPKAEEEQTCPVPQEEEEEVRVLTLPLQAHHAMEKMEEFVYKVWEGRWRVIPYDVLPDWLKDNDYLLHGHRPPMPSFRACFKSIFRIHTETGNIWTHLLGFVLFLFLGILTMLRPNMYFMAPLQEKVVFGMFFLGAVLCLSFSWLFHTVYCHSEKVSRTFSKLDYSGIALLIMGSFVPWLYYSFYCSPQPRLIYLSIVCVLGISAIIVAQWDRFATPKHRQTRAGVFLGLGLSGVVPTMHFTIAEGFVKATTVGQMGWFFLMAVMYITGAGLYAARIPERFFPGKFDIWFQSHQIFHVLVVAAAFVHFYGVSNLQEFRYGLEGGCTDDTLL
# Description: as §1, with “OpenBiosystems. […]” for “OpenBiosystems.”
# as §2
# AdipoR2, sequence (Q86V24 76-386 limits assumed): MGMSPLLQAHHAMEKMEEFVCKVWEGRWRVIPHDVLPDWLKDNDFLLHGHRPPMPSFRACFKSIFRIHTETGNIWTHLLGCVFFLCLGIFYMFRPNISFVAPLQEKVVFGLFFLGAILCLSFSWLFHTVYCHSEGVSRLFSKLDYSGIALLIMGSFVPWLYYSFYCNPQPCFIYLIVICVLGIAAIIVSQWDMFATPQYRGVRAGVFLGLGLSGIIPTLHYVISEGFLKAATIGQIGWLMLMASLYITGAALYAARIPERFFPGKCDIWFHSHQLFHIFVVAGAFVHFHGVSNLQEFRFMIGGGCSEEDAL
molecule,measurement,setting,value
"Adiponectin: insulin-sensitizing hormone, agonist of the human adiponectin receptors AdipoR1 and AdipoR2 (protein, UniProt Q15848 19-244, looked up) Adiponectin: ETTTQGPGVLLPLPKGACTGWMAGIPGHPGHNGAPGRDGRDGTPGEKGEKGDPGLIGPKGDIGETGVPGAEGPRGFPGIQGRKGEPGEGAYVYRSAFSVGLETYVTIPNMPIRFTKIFYNQQNHYDGSTGKFHCNIPGLYYFAYHITVYMKDVKVSLFKKDKAMLFTYDQYQENNVDQASGSVLLHLEVGDQVWLQVYGEGERNGLYADNDNDSTFTGFLLYHDTN",EC50,"AdipoR2; AdipoR2, FET3 repression in iron-deficient LIM",2.4 pM
same,pFET3-397 repression by adiponectin,AdipoR2; AdipoR2 in 2% galactose,repressed in a dose-dependent manner
same,effect of ligand on FET3 in cells carrying empty expression plasmid,FET3,did not respond
same,pFET3-397 repression by adiponectin,AdipoR1,repressed in a dose-dependent manner
